± gives the uncertainty stated by the source.
Experiment: amyloid nucleation score (Sup35N fusion, yeast selection) (log enrichment); library NNK3; higher = more nucleation; inactive = no reads after selection
In short: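 Random libraries were run with three technical output replicates. In each, psi-negative yeast expressing Sup35N fused to peptides of 20 random codons were induced 24 hours with 100 μM copper sulfate and grown 7 days at 30°C on medium lacking adenine and uracil, and input and output plasmid inserts were Illumina-sequenced. The nucleation score is the DiMSum log enrichment of output over input reads, centred on the mode score of non-aggregating sequences, and sequences under 100 input reads were excluded.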

Row | Substance | amyloid nucleation score
1 | IPCMG | inactive
2 | FSYRPSNCYIR | inactive
3 | KLFYQMILYRNG | inactive
4 | MTDFKSTLSTTSMFTGESLI | inactive
5 | YRCDVFFLSVVVDSNFIDKL | 2.83 ± 0.079
6 | SEMELDLSFSPPYRGLPIIV | inactive
7 | LNYFR | inactive
8 | CHISFWLTLWGRSNSEMWMD | inactive
9 | TGFLSIHLSWTYTCYMIVER | inactive
10 | WEYNASLLVLTHLGWAFHLC | inactive
11 | TICPWNATLGGKGDRSMK | inactive
12 | YCMGYSMHIV | inactive
13 | KGTPGLDFTAADPGVIAL | inactive
14 | DVDFPSFAGFMVTISIGIFV | inactive
15 | SRIIVRN | inactive
16 | KAHRYVWVPSMPSNMNSHRR | inactive
17 | MKVIRTYRGYGCQDWIELLF | inactive
18 | GCTFRNWIWWLHRFDKMR | 0.861 ± 0.15
19 | PCFLMGPVIPIVFALYKILV | inactive
20 | LKTNCTPNMLFGFLSEMMRC | inactive
21 | NIRWGTYVSKFVLYLAITTR | inactive
22 | FWFFYNICRMLKSVT | inactive
23 | ASATARHTPNIY | inactive

Row | Substance | amyloid nucleation score
24 | TMASYWPMERRRTASELPGV | inactive
25 | VKSISNNSQLSSELN | inactive
26 | LGNISCELARIELHAPAIR | inactive
27 | WRFRPVVYQRRPY | inactive
28 | DRFLLFFH | inactive
29 | EDRSHVAYTFFSALAQVT | inactive
30 | KFFCW | inactive
31 | RRARKWLVIDVRVPSLWSMR | inactive
32 | WEFSVMSRCRKGHYTALFVV | inactive
33 | CNGLFIGPML | inactive
34 | IGEILIVFALTRNTVVGYGF | inactive
35 | VVQSYFIRREEFLLSCVQAG | inactive
36 | LKAKCVIMSLPLDMGYHGKR | inactive
37 | TLNGFLNGYEYQ | inactive
38 | ETGYKCAKGFYRCTGRGMVW | inactive
39 | VNITLLRCEGSGMFGRSSKL | 1.13 ± 0.11
40 | FLTVIGLYNLSDGPCCK | 1.79 ± 0.06
41 | NRQMLYILEINSIIFIQSFC | 0.903 ± 0.16
42 | SLNFLR | 0.937 ± 0.39
43 | LCVVEIFTLIGSCCHSDLGW | 0.914 ± 0.13
44 | SKCSVGVLTRFR | inactive
45 | SNGAGC | inactive
46 | LAYWPSNGCVP | inactive

Row | Substance | amyloid nucleation score
47 | STLASSS | inactive
48 | TQRTGY | inactive
49 | VRRSMATLFWCWDYTNLDCI | inactive
50 | ALLCRMGRVRWPVSHEGNVC | inactive
51 | GRNYFENVWIHRLYSSCLVM | 1.94 ± 0.068
52 | CVGVCKNLNRWFH | inactive
53 | HTHVSTTTGIFSDRICEW | inactive
54 | NSCIFQTRMSGSYETVYHAP | 0.054 ± 0.45
55 | PVKMGVVLCNKWIYSKGTKN | inactive
56 | RIRFKRGVPSVVAHVVLR | inactive
57 | FRYVHIHLRYQPGF | inactive
58 | IVRSF | inactive
59 | YLWFWQFNTRLGVRRIFWTR | inactive
60 | RDYLYGNDMSNVKGYRRRWY | inactive
61 | MSVLC | inactive
62 | FDLGGLLPL | inactive
63 | KSSWAIKSSNGTW | inactive
64 | SGPRDSRLCRDSSVSGVYLS | inactive
65 | KDLCPFARPASRLHRVACME | inactive
66 | IKDIFACSMCFTTKSNAAHY | 3 ± 0.053
67 | GSRCSASPKNSESGRGKYFG | inactive
68 | SWAYL | inactive
69 | FMGFFYNFYVPKLKSSVHNE | 0.303 ± 0.34

Row | Substance | amyloid nucleation score
70 | LCRFNLYYWLVFELACSRWN | inactive
71 | ATKYDFYMVNKRNFWKSRGF | inactive
72 | YIFVALYPSHT | 0.443 ± 0.28
73 | NFCFLCSWCIL | 2.56 ± 0.052
74 | SLSWHK | inactive
75 | LCDGCKNMFLLPLY | inactive
76 | FFIYKFYPFRGISLSAVRIR | inactive
77 | SCSLRYGMTGWPESKTYTAF | inactive
78 | TVGVKKYAMGRRYIV | inactive
79 | NCLGPWPCLTTILYLRSLEF | inactive
80 | YCIRVVVWYNRHYGYSLS | inactive
81 | LTWYREDLYVRSWSCYWDQR | inactive
82 | NGMASMIRGIYNSVPHIRGL | inactive
83 | QRVMFFCAMSLNKPRSV | inactive
84 | SSVRMRISFMINGRQTA | 0.833 ± 0.15
85 | VSRTSVSRRFYCIARMCSPV | inactive
86 | VLTLLMKVEHTGVSHSVGRV | 1.02 ± 0.19
87 | LAIILLFAVRLCRDANGDAM | inactive
88 | WIFCLVAIFRTEVDMTNYFT | 0.355 ± 0.69
89 | CYIVGVVGLSTDWFMSGHSD | 0.035 ± 0.9
90 | LNFVWNFNWLYWFLYGIERV | inactive
91 | NSDATIWYFHRCSRLYVAGM | inactive
92 | RNNVPGVEYVLDYLFMLKVM | inactive

Row | Substance | amyloid nucleation score
93 | NVPKPGTFFCDKCYYGCVWD | 0.642 ± 0.48
94 | CTVLKYFLRYRRSHDL | inactive
95 | ASMLLDKYFANLYELVLRVF | inactive
96 | GTGRSECNCMQGTHGLGICS | -0.184 ± 1.5
97 | NNFNISLRVRRSFKKCFFVR | 1.85 ± 0.077
98 | CSKNRQSELRALGSYI | inactive
99 | NNTEHS | inactive
100 | WSAECLFLVWRIHSML | inactive
101 | DLTDNVFYWSRNTIDEVRVR | inactive
102 | RRSCCLVLTIRVFCRICRDE | inactive
103 | SDEKNKNVLGAYRVIMCVVY | inactive
104 | SLGNITVPAT | inactive
105 | SSNILFVIFIAY | 1.08 ± 0.21
106 | RDGNRVQMVSIPIQVSAMLG | inactive
107 | TTSNMGVVHYL | inactive
108 | RYRPHNPDVVN | inactive
109 | FPCSGPACYIYYTLHGLSLG | inactive
110 | HRGYAAFFS | inactive
111 | NDIITLSQTLVELSPFGWLS | inactive
112 | LEEDVHISFHHIFDRFCPTT | inactive
113 | YNGLGMIVPMFLVHPLK | inactive
114 | FKCAADCVFLALYYMDGWKS | inactive
115 | CNFDKTLRSHDDQLAVGITV | inactive

Row | Substance | amyloid nucleation score
116 | TSGGQRAAVWIYFTNEVMKY | 0.207 ± 0.34
117 | AYFLLCHHFTKRSWARGWR | 0.314 ± 0.46
118 | FGLEFWTYTSIRFWLEYKPH | 0.972 ± 0.099
119 | MQTNCFRMAVYFAQVRLS | inactive
120 | DMGLYLFFIYLCGVRDLLST | inactive
121 | IHHQC | inactive
122 | SRFDRVMQNDCCVYSCHIII | inactive
123 | SEDDC | inactive
124 | NRVLSVFDLFLRVAFASRFR | inactive
125 | MSLVFRMSPHIQLVGWVHGR | inactive
126 | GLITWT | inactive
127 | SVIRVMSFG | inactive
128 | GILRIWNDLSLRFDKIWWG | inactive
129 | CMSRYVDSYFNLAYRDRFLW | 0.451 ± 0.47
130 | STWLSNWYY | -0.759 ± 1.1
131 | IYCFRGNHFDCLGAGNMLQV | inactive
132 | NMFCVPYVKVESGCIMKRGN | 1.91 ± 0.06
133 | RSTYTSFRARWKRRANGSGW | inactive
134 | VMAELVSVKVAQVIVR | inactive
135 | WPESIFKLRYRSGCCTEVND | inactive
136 | GECWAPVYDFWI | inactive
137 | RIDSMRRMGYLNSIFGCFV | inactive
138 | TSVWVYTVPSFVGNDIDTS | inactive

Row | Substance | amyloid nucleation score
139 | CLVNWPMWENPWSPHFGSNY | inactive
140 | VIVCNECLG | 0.546 ± 0.42
141 | RWYWDHVRIDTYVVHSRTWR | 0.979 ± 0.13
142 | SRRVNFLPVVFQHMTWLVLV | inactive
143 | LYDSSTALATVSDHFVEWLS | inactive
144 | CHEKANQELRHPYGCECVFV | inactive
145 | CSTISVTLALV | inactive
146 | RIVSVFLDNEQISRNGAVSS | -0.425 ± 0.59
147 | LLLTYFMMGYYVVWYVFGYW | inactive
148 | PLKCGFGPACPDFYIVEGGK | inactive
149 | SIALH | inactive
150 | YLWTTLCKPRVDFRAEYRDL | 2.05 ± 0.058
151 | MNDNLNNHVSDEIFSFVG | 0.813 ± 0.2
152 | SYNSVRW | inactive
153 | IKVISLEAMKTYCF | inactive
154 | VQNNFGVSNAGNGLCWGCIC | 2.65 ± 0.051
155 | IKFIERWYQFTYVHCLQVMG | -0.247 ± 0.64
156 | YALYCVFTGNSWQSVLRHRY | 1.32 ± 0.095
157 | LYRKWRE | inactive
158 | IYSTVSYQGTVWRKYWQMNG | inactive
159 | CIAMGTISFQFPVLMRYYLC | inactive
160 | CVLWYCCYTQLSMQKCNSRM | inactive

Reference: the supplement of paper PMC12042874
